We go through two substances from US20110117017A1, “PEPTIDES WITH PROPERTIES OF AN […] FOR THE ALPHA 1A […] RECEPTOR AND USES THEREOF” (priority 2006, published 2011).

Experiment [1] has as its target alpha1d adrenergic receptor (expressed in Pichia pastoris, membranes).
Experiment [2] addresses alpha2a adrenergic receptor (expressed in Pichia pastoris, membranes).
The target of experiment [3] is alpha1a adrenergic receptor (expressed in Pichia pastoris, membranes).
The target of experiment [4] is beta1 adrenergic receptor (expressed in Pichia pastoris, membranes).
In experiment [5] the target is alpha1a adrenergic receptor (expressed in Pichia pastoris, membranes). The source holds these as a separate data set.
The target is the same in experiment [6]. This is another data set of the same source.

Like-named read-outs stand apart in the source and are kept apart here.

Chain of alpha1a adrenergic receptor (expressed in Pichia pastoris, membranes) (P35348 whole entry): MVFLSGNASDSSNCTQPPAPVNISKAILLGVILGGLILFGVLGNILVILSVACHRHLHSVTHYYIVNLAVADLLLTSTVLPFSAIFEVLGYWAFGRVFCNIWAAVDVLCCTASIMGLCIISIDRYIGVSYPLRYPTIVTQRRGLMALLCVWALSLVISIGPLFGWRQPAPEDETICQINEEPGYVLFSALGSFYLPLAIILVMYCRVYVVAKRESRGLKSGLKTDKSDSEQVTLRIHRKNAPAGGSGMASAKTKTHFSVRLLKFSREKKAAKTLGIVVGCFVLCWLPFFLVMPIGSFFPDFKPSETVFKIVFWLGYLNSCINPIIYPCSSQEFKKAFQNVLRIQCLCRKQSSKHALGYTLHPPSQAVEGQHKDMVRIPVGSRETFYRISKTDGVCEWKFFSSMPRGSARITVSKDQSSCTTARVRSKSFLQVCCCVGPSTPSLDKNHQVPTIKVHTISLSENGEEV
Chain of alpha1d adrenergic receptor (expressed in Pichia pastoris, membranes) (P25100 whole entry): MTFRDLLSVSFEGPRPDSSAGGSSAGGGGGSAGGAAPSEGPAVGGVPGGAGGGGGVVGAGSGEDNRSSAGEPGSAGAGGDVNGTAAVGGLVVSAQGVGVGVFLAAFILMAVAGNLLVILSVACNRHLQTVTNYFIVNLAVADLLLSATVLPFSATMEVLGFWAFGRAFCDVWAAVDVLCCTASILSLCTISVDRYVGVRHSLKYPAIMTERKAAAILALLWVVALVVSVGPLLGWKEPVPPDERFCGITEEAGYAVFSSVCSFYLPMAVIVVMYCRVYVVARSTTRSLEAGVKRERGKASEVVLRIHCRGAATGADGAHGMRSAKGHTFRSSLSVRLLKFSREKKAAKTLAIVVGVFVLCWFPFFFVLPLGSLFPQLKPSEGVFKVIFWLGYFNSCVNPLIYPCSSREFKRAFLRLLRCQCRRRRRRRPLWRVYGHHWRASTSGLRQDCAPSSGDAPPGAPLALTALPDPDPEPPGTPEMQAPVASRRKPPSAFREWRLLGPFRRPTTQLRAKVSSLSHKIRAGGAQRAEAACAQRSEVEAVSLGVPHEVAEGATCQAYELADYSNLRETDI
Chain of beta1 adrenergic receptor (expressed in Pichia pastoris, membranes) (P08588 whole entry): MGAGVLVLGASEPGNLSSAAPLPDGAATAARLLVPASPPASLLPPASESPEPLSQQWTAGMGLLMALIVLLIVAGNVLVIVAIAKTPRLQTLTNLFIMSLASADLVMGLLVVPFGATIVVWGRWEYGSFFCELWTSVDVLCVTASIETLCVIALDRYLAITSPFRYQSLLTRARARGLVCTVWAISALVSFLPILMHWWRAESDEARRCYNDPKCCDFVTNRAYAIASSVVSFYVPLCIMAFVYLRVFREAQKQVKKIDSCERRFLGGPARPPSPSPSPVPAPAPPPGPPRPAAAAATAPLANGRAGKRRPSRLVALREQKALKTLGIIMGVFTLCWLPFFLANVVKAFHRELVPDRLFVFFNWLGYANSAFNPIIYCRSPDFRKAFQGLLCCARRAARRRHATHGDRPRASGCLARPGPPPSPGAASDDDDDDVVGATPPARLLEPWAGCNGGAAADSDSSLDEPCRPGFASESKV
Chain of alpha2a adrenergic receptor (expressed in Pichia pastoris, membranes) (P08913 whole entry): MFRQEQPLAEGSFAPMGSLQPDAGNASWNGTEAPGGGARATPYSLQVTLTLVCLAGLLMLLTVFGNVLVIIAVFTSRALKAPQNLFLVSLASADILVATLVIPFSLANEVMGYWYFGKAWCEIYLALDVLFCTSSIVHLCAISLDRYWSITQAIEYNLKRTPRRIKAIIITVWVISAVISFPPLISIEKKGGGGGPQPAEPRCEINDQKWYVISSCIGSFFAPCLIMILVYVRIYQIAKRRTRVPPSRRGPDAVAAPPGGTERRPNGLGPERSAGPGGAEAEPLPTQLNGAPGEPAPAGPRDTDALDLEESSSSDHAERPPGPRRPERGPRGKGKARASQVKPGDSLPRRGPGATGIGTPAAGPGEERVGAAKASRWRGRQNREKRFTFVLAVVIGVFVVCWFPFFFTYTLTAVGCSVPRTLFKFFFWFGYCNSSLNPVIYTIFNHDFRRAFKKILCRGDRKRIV

What is called IC50 is the point on the concentration scale where inhibition reaches its midpoint. A lower IC50 goes with greater potency. With AdTx1 peptide, the IC50 in experiment [1] is 9900 nM; in experiment [2] it was > 50000 nM; in experiment [3], 1.8 nM; in experiment [4], > 50000 nM; in experiment [5], 0.5 nM.

As a reminder, the Kd is the equilibrium constant for the complex coming apart. Low readings indicate a tighter complex, high ones a looser complex. Substance radiolabeled AdTx1 peptide (125I-AdTx1) yielded a Kd in experiment [6] of 0.8 nM.
